Results on one substance are retold here after patent US20040053278A1.

Assay [1] deals with constitutively active (TD) TβR-I (UniProt P36897). Put plainly: cell-based or functional assay.
The target of assay [2] is constitutively active BMPR-IB. Put plainly: cell-based or functional assay.

constitutively active (TD) TβR-I, sequence (P36897 34-503 T204D limits assumed): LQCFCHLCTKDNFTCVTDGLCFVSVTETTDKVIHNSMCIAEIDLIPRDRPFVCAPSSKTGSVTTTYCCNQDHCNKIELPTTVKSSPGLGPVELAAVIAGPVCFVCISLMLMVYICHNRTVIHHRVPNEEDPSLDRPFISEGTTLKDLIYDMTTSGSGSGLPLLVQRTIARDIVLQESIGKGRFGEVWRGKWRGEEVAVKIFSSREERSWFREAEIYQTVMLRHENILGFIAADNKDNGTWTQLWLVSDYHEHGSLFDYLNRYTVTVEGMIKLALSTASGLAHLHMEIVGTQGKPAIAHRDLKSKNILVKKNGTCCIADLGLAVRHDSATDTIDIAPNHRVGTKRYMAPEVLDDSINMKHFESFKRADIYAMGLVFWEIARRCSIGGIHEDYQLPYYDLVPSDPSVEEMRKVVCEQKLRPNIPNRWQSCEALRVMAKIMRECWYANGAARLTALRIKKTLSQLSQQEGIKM

In assay [1], Myc-Smad6 (from UniProt O35182 1-495) returned a Phosphorylation of Smad2 induced by constitutively active TβR-I ([32P]orthophosphate labeling, immunoprecipitation) of 39 % reduction. This substance also yielded a Smad1 phosphorylation induced by constitutively active BMPR-IB in assay [2] of 60 % reduction.
